# Measurements reported in patent US20030135880A1, “Compositions and methods for halogenation reactions” (priority 2002, published 2003).
# Biological target: PrnA (Pseudomonas fluorescens, UniProt P95480)
# Assay: Halogenation by PrnA expressed in transgenic plants, immunopurified and assayed in vitro (Example 5)
# Assay type: biochemical
# Set-up: made in house; host or cells: Transgenic Arabidopsis thaliana (Columbia) lines 3 and 12; leaf extract immunopurified on goat anti-PrnA sera with anti-goat-IgG-agarose
# Settings: immunopurified PrnA with Fre (20 microliter, 21 microgram/ml), overnight
# Description: Arabidopsis thaliana, ecotype Columbia, is transformed (by the Agrobacterium-mediated transformation method) with the four nucleic acid molecules of the pyrrolnitrin operon, encoding PrnA, PrnB, PrnC & PrnD, each behind the ubiquitin promoter as described below in Example 6.
# Two transformed lines (3 and 12) and a nontransformed control line are grown and leaves (1 g) harvested. The leaves are frozen in liquid N2, powdered in a mortar and extracted with 6 ml of LS buffer (50 mM HEPES, pH 7.5, 5 mM NaCl). After centrifugation at 5000×g for 15 min to pellet debris, the supernate is filtered through glass wool to remove residual particles.
# PrnA is immunopurified by mixing extract (3 ml) with an affinity matrix. The affinity matrix is prepared by mixing for 30 minutes, at room temperature, 100 microliters of rabbit antigoat-IgG-agarose (purchased from Sigma) with 50 microliters of goat anti-PrnA sera. Then the agarose beads are washed three times with 1 ml of LS buffer. After mixing the 3 ml sample with the affinity matrix, unabsorbed material is removed from the beads by washing with LS buffer. A positive control sample is prepared by mixing 5 microliter of PrnA (0.36 microgram/microliter) purified from Pseudomonas fluorescens as described in Example 1 with 3 ml LS then treating in parallel with the plant extract samples. […]
molecule,measurement,value
"PrnA: PrnA purified from Pseudomonas fluorescens, positive control added to non-transformed plant extract (protein) MNKPIKNIVIVGGGTAGWMAASYLVRALQQQANITLIESAAIPRIGVGEATIPSLQKVFFDFLGIPEREWMPQVNGAFKAAIKFVNWRKSPDPSRDDHFYHLFGNVPNCDGVPLTHYWLRKREQGFQQPMEYACYPQPGALDGKLAPCLSDGTRQMSHAWHFDAHLVADFLKRWAVERGVNRVVDEVVDVRLNNRGYISNLLTKEGRTLEADLFIDCSGMRGLLINQALKEPFIDMSDYLLCDSAVASAVPNDDARDGVEPYTSSIAMNSGWTWKIPMLGRFGSGYVFSSHFTSRDQATADFLKLWGLSDNQPLNQIKFRVGRNKRAWVNNCVSIGLSSCFLEPLESTGIYFIYAALYQLVKHFPDTSFDPRLSDAFNAEIVHMFDDCRDFVQAHYFTTSRDDTPFWLANRHDLRLSDAIKEKVQRYKAGLPLTTTSFDDSTYYETFDYEFKNFWLNGNYYCIFAGLGMLPDRSLPLLQHRPESIEKAEAMFASIRREAERLRTSLPTNYDYLRSLRDGDAGLSRGQRGPKLAAQESL",level of 7-Cl-Trp found,185 pmol
